Source: patent publication US20230212305A1, “ANTI-ABCG2 ANTIBODIES AND USES THEREOF” (Kenjockety Biotechnology, Inc., priority 2020, published 2023)

B1: G2.636 rat: anti-ABCG2 antibody raised in rat (antibody, V domains shown)
VH: EVKLVESGGGLVQPGRSLKLSCAASGFTFSRFYMAWVRQAPTKGLEWVAHISHGGDTTYYRDSVKGRFTISRDNAKSTLFLQMDSLRSEDTATYYCTTSAAPWNYVMDGWGLGASVTVSS
VL: DIVMTQSPSLLSASVGDRVTLTCKGSQNINNFLAWYQQKLGEAPKLLIYKTNSLHTGIPSRFSGSGSGTDYTLTISSLHSEDLATYYCYQYNNGYTFGAGTKLELK
B2: G2.629 rat: anti-ABCG2 antibody raised in rat (antibody, V domains shown)
VH: EVQLVESGGGLVQPGRSLKLSCAASGFIFSRFYMAWVRQAPTKGLEWVAYINTGGGTTYYRDSVKGRFTISRDNAKTTLYLQMDSLRSEDTATYYCTTLAAPWNYVMDAWGQGASVTVSSA
VL: DVVMTQSPSLLSASVGDRVTLTCKGSQNINNFLAWYQQKLGEAPKLLTYKTNSLHTGIPSRFSGSGSGTDYTLTISSLHSEDLATYYCYQYNNGYTFGPGTKLELK
B3: G2.255 mouse: anti-ABCG2 antibody raised in mouse, listed in Table 2 (antibody, V domains shown)
VH: EVMLVESGGALVKPGGSLKLSCAASGFTFSNNAMSWVRQTPETRLEWVATITGGGSYTYYPDSVKGRFTISRDNARNTLYLQMSSLRSEDTATYYCASPDGNYEGVLAYWGQGTLVTVSA
VL: DIQMNQSPSSLSASLGDRVTISCSASQGISNYLNWYQQKPDGTIKLLIYYTSTLHSGVPSRFSGSGSGTDYSLTISNLEPEDIATYYCQHYSSLPWTFGGGTKLEIK
B4: G2.256 mouse: anti-ABCG2 antibody raised in mouse, listed in Table 2 (antibody, V domains shown)
VH: EVQLQQSGPELVKPGASLKISCKTFGYSFTGYYMHWVKQSPEKSLEWIGKIVPSTGGTTYNQKFKAKATLTVDKSSFTAYMQLKSLTSEDSAVYYCAREKVYGYDVYYFDYWGQGTTLTVSS
VL: DIVMSQSPATLSVTPGDRVSLSCRASQSISDYLHWYQQKSHESPRLLIKYASQSISGIPSRFSGSGSGSDFTLSINSVEPEDVGVYYCQNGHSFPWTFGGGTKLEIK
B5: G2.248 mouse: anti-ABCG2 antibody raised in mouse, listed in Table 2 (antibody, V domains shown)
VH: QVQLQQPGAELVKPGASVKLSCKTSGFTFSNSYISWLKQKPRQSLEWIAWIYAGTGGTNYNQKFTGKAQLTVDTSSSTAYMQLSSLTSEDSAIYYCATYGNFLYAMDNWGQGTSVTVSS
VL: DIQMKQSPASLSASVGETVTITCRASGNIHNYLAWYQQKQGKSPQLLVYNTKTLADGVPSRFSGSGSGTQYSLKINSLQPEDFGSYYCQHFWSTPWTFGGGTKLEIK

How the values were obtained:
Panc1/T300 cells = experiment: Xenograft study with topotecan-resistant Panc1/T300 cells; assay type: in vivo
Procedure: PANC1 (ATCC, CRL-1469) is a pancreatic ductal epithelial carcinoma cell line. The topotectan-resistant Panc1/T300 cells were developed by continuously incubating PANC1 cells in the culture medium containing increasing concentration of topotecan of 25, 50, 100, 200 and 300 nM. […] The arrows indicate the dosing schedule.

ABCG2 [1] = target: T1, ABCG2 (Homo sapiens, UniProt Q9UNQ0); experiment: Flow cytometry binding to 293T cells overexpressing human ABCG2 (293T_ABCG2_OX); set-up: key to Binding by FACS: binding=“+”; non-significant binding=“−”; conditions: for Binding by FACS: 293T_ABCG2_OX cells
T1 construct: expressed in transfected cells
T1 sequence (Q9UNQ0 1-655): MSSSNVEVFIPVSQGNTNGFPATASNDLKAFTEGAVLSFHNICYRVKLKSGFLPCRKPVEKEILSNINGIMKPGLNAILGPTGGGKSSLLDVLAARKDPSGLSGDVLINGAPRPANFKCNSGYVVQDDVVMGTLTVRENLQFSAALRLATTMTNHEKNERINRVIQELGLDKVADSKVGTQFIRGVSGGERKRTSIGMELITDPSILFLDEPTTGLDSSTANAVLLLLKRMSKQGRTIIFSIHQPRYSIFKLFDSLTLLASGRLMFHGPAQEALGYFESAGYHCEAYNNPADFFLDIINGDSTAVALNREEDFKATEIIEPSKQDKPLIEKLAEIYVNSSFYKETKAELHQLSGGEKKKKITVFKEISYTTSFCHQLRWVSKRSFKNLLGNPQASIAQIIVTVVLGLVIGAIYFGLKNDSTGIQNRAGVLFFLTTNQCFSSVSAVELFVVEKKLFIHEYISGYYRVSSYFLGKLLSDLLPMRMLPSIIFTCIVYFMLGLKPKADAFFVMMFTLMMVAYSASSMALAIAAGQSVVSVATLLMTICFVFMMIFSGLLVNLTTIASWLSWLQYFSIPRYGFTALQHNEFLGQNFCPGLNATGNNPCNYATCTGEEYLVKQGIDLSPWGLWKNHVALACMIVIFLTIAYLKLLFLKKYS
Procedure: (§1) Cell Binding Assays. Antibody binding to cells was evaluated by flow cytometry. 293T cells stably transfected to express human or cynomolgus ABCG2 (293T_ABCG2_OX) were washed once in flow cytometry buffer (PBS+2% FBS+0.02% sodium azide), resuspended at 2×10^6 cells/mL in flow cytometry buffer, and dispensed into 96-well microtiter plates at 0.1 mL/well. Recombinant antibodies were added to cells at 5 ug/mL for initial binding confirmation, or serially diluted from 100 ug/mL in flow cytometry buffer. After incubating cells on ice for 30 min, cells were washed twice with flow cytometry buffer. Bound antibody was detected with PE-labeled F(ab′)2 fragment goat anti-human IgG (Jackson ImmunoResearch) and evaluated on an Attune NxT flow cytometer. EC50 is calculated to be the concentration of antibody that gives half maximal response.

ABCG2 [2] = target: T1, ABCG2; assay type: cell-based
Procedure: 293T_ABCG2_OX cells were washed several times and aliquoted into 96-well plates as 50 μl aliquots/well at a cell density of 2×10e6 cells per ml in phenol red-free DMEM. Cells were mixed with 50 μl antibodies or the small molecule inhibitors of ABCG2:-fumitremorgin C (FTC), or its tetracyclic analogue K0143, with a final concentration of 1 μM. Cells were then incubated in the presence of 2.5 μM Mitoxantrone 1 h at 37° C. The cells were subsequently washed twice and finally resuspended in […] PBS. Mitoxantrone fluorescence was measured using excitation at 635 nm and emission at 647 nm. Protocols was measuring efflux blockade are found in Szabo E, et al., PLoS One. 2018 Jan. 17; 13(1):e0190629; Deeken J F, et al., Mol Pharmacol. 2009 November; 76(5):946-56).

293T_ABCG2_OX cells = assay type: cell-based, human; conditions: cell killing by topotecan on 293T_ABCG2_OX cells; viability relative to IgG control
Procedure: Cytotoxicity Assays. The effect of antibodies on topotecan cytotoxicity was evaluated on 293T_ABCG2_OX cells, 293T cells stably transfected to express ABCG2. Cells were plated in 0.05 mL of Assay Media (DMEM+10% FBS) at 5000 cells/well in white, flat bottom 96-well tissue culture plates. Topotecan was prepared at 2× final assay concentration by serial dilution from 200 uM in assay media containing test antibodies or control antibodies at 100 ug/mL (2× final concentration), or Fumitremorgin C, a small molecule ABCG2 inhibitor at 20 uM (2× final concentration). An equivalent volume (0.05 mL) of the topotecan/antibody mixture was added to the 293T_ABCG2_OX cells in 96-well plates. The plates were then incubated at 37° C., in 5% CO2. After 72-96 hr plates were equilibrated to room temperature and cell viability assessed using Promega® CellTiter-Glo® Luminescent Cell Viability Assay according to the manufacturer's recommended protocol. Luminescence was measured on a Molecular Devices® FlexStation® 3 Multi-Mode Microplate Reader and data analyzed using GraphPad Prism 8.0 software. Half maximal inhibitory concentration (1050) is the concentration of drug (topotecan or other chemotherapy cytotoxic agent) where the response (cell growth) is reduced by 50%.

cynomolgus ABCG2 = experiment: Flow cytometry binding to 293T cells overexpressing cynomolgus ABCG2; set-up: key to Cynomolgus ABCG2 binding: binding=“+”; non-significant binding=“−”
Procedure: as §1

Chain of cynomolgus ABCG2 (as listed by the source): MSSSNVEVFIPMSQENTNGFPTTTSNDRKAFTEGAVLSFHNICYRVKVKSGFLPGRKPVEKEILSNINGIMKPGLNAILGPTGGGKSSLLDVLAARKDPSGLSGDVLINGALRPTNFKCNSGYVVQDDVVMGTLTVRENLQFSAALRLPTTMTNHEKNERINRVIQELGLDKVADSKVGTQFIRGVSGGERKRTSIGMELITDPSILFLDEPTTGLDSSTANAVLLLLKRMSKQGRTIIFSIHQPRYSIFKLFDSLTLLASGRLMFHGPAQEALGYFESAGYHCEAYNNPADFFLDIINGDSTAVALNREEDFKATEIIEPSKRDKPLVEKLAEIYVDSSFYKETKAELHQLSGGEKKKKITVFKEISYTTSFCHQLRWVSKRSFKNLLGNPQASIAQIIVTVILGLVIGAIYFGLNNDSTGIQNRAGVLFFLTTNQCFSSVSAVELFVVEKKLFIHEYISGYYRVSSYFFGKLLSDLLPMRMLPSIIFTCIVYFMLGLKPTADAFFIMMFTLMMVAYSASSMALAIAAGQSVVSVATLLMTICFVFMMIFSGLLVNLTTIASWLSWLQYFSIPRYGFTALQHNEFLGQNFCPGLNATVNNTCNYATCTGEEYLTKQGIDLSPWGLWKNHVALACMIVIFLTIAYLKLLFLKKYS

| Molecule | tumor volume, in combination with topotecan (Panc1/T300 cells) | Binding by FACS (ABCG2 [1]) | binding to 293T cells overexpressing human ABCG2 (ABCG2 [1]; in words, FIGS. 7-11, 21) | Block Efflux (ABCG2 [2]) | Killing (293T_ABCG2_OX cells) | binding to 293T cells overexpressing cynomolgus ABCG2 (cynomolgus ABCG2; in words, FIGS. 7-11, 21) | Cynomolgus ABCG2 binding (cynomolgus ABCG2) |
| --- | --- | --- | --- | --- | --- | --- | --- |
| B1 | efficacious in reducing tumor volume | + | strong binding | ++ | +++ (viability <10% of IgG control) | strong binding |  |
| B2 | efficacious in reducing tumor volume | + |  | + | + (viability ≥30% and <50% of IgG control) |  |  |
| B3 |  | + |  | − | − (≥75% of IgG control) |  | − |
| B4 |  | + |  | − | − (≥75% of IgG control) |  | − |
| B5 |  | + |  | − | − (≥75% of IgG control) |  | − |
